Laboratory results: publication PMC6179184, “Interaction of the Warsaw breakage syndrome DNA helicase DDX11 with the replication fork-protection factor Timeless promotes sister chromatid cohesion” (PLoS Genetics, 2018)

B1: DDX11-3xFlag wild type [human] / endogenous Timeless (HEK 293T) [human (endogenous in HEK 293T)] (parent complex)
chain 1: MANETQKVGAIHFPFPFTPYSIQEDFMAELYRVLEAGKIGIFESPTGTGKSLSLICGALSWLRDFEQKKREEEARLLETGTGPLHDEKDESLCLSSSCEGAAGTPRPAGEPAWVTQFVQKKEERDLVDRLKAEQARRKQREERLQQLQHRVQLKYAAKRLRQEEEERENLLRLSREMLETGPEAERLEQLESGEEELVLAEYESDEEKKVASRVDEDEDDLEEEHITKIYYCSRTHSQLAQFVHEVKKSPFGKDVRLVSLGSRQNLCVNEDVKSLGSVQLINDRCVDMQRSRHEKKKGAEEEKPKRRRQEKQAACPFYNHEQMGLLRDEALAEVKDMEQLLALGKEARACPYYGSRLAIPAAQLVVLPYQMLLHAATRQAAGIRLQDQVVIIDEAHNLIDTITGMHSVEVSGSQLCQAHSQLLQYVERYGKRLKAKNLMYLKQILYLLEKFVAVLGGNIKQNPNTQSLSQTGTELKTINDFLFQSQIDNINLFKVQRYCEKSMISRKLFGFTERYGAVFSSREQPKLAGFQQFLQSLQPRTTEALAAPADESQASTLRPASPLMHIQGFLAALTTANQDGRVILSRQGSLSQSTLKFLLLNPAVHFAQVVKECRAVVIAGGTMQPVSDFRQQLLACAGVEAERVVEFSCGHVIPPDNILPLVICSGISNQPLEFTFQKRELPQMMDEVGRILCNLCGVVPGGVVCFFPSYEYLRQVHAHWEKGGLLGRLAARKKIFQEPKSAHQVEQVLLAYSRCIQACGQERGQVTGALLLSVVGGKMSEGINFSDNLGRCVVMVGMPFPNIRSAELQEKMAYLDQTLPRAPGQAPPGKALVENLCMKAVNQSIGRAIRHQKDFASVVLLDQRYARPPVLAKLPAWIRARVEVKATFGPAIAAVQKFHREKSASS
chain 2: MDLHMMNCELLATCSALGYLEGDTYHKEPDCLESVKDLIRYLRHEDETRDVRQQLGAAQILQSDLLPILTQHHQDKPLFDAVIRLMVNLTQPALLCFGNLPKEPSFRHHFLQVLTYLQAYKEAFASEKAFGVLSETLYELLQLGWEERQEEDNLLIERILLLVRNILHVPADLDQEKKIDDDASAHDQLLWAIHLSGLDDLLLFLASSSAEEQWSLHVLEIVSLMFRDQNPEQLAGVGQGRLAQERSADFAELEVLRQREMAEKKTRALQRGNRHSRFGGSYIVQGLKSIGERDLIFHKGLHNLRNYSSDLGKQPKKVPKRRQAARELSIQRRSALNVRLFLRDFCSEFLENCYNRLMGSVKDHLLREKAQQHDETYYMWALAFFMAFNRAASFRPGLVSETLSVRTFHFIEQNLTNYYEMMLTDRKEAASWARRMHLALKAYQELLATVNEMDISPDEAVRESSRIIKNNIFYVMEYRELFLALFRKFDERCQPRSFLRDLVETTHLFLKMLERFCRSRGNLVVQNKQKKRRKKKKKVLDQAIVSGNVPSSPEEVEAVWPALAEQLQCCAQNSELSMDSVVPFDAASEVPVEEQRAEAMVRIQDCLLAGQAPQALTLLRSAREVWPEGDVFGSQDISPEEEIQLLKQILSAPLPRQQGPEERGAEEEEEEEEEEEEELQVVQVSEKEFNFLDYLKRFACSTVVRAYVLLLRSYQQNSAHTNHCIVKMLHRLAHDLKMEALLFQLSVFCLFNRLLSDPAAGAYKELVTFAKYILGKFFALAAVNQKAFVELLFWKNTAVVREMTEGYGSLDDRSSSRRAPTWSPEEEAHLRELYLANKDVEGQDVVEAILAHLNTVPRTRKQIIHHLVQMGLADSVKDFQRKGTHIVLWTGDQELELQRLFEEFRDSDDVLGHIMKNITAKRSRARIVDKLLALGLVAERRELYKKRQKKLASSILPNGAESLKDFCQEDLEEEENLPEEDSEEEEEGGSEAEQVQGSLVLSNENLGQSLHQEGFSIPLLWLQNCLIRAADDREEDGCSQAVPLVPLTEENEEAMENEQFQQLLRKLGVRPPASGQETFWRIPAKLSPTQLRRAAASLSQPEEEQKLQPELQPKVPGEQGSDEEHCKEHRAQALRALLLAHKKKAGLASPEEEDAVGKEPLKAAPKKRQLLDSDEEQEEDEGRNRAPELGAPGIQKKKRYQIEDDEDD

Variants of: B1
Experiment: co-immuno-precipitation (anti-Flag M2 agarose beads) with quantified Western blot; HEK 293T whole cell extracts, 48 hr post-transfection; three independent experiments; parent: 1; read off a plot

| Variant | ratio to parent |
| --- | --- |
| chain 1 E201K, chain 1 Y202A | ~0.48 |
| chain 1 E201K, chain 1 Y202A, chain 1 E203K | ~0.56 |
